Positions count from the first letter of the chain named.
T1: endogenous murine MerTK on bone marrow-derived macrophages (mouse, UniProt Q60805 19-994)
T1 construct: whole, on cells; MFI on MerTK KO BMDM subtracted; also called BMDM WT-KO
T1 sequence (looked up): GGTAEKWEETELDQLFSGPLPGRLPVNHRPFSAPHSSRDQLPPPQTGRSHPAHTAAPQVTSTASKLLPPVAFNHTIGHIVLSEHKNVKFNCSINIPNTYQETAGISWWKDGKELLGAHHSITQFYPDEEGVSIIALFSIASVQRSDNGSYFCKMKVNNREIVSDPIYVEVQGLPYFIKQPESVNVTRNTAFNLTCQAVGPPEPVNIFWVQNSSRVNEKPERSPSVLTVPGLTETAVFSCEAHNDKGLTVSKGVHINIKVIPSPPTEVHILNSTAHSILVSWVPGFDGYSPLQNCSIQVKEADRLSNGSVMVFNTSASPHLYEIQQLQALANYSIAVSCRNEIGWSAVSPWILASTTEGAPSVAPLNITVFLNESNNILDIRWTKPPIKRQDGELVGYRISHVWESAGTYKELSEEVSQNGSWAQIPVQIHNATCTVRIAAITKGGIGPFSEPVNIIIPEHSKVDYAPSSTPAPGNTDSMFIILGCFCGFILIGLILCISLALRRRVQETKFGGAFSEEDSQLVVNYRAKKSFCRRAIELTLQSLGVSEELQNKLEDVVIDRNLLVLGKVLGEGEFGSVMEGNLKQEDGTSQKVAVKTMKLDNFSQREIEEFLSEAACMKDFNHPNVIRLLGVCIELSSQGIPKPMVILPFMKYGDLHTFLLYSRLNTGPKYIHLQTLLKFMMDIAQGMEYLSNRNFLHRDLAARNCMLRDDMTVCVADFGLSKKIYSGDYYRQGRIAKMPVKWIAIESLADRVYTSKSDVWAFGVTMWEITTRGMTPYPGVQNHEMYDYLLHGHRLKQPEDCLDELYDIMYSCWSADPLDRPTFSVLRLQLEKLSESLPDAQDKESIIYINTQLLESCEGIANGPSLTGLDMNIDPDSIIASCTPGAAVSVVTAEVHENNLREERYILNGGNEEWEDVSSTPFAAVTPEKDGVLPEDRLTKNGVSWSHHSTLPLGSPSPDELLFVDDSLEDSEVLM

T2: mouse MerTK overexpressed on CHO cells (mouse, UniProt Q60805 19-994)
T2 construct: whole, on cells; also called CHO-muMerTK OE
T2 sequence (looked up): T1 sequence (looked up)

T3: Recombinant human MerTK-human Fc Chimera protein (human, UniProt Q12866 26-499, limits assumed)
T3 construct: bought construct; also called MerTK-Fc (R&D systems, Cat #391-MR-100)
T3 sequence: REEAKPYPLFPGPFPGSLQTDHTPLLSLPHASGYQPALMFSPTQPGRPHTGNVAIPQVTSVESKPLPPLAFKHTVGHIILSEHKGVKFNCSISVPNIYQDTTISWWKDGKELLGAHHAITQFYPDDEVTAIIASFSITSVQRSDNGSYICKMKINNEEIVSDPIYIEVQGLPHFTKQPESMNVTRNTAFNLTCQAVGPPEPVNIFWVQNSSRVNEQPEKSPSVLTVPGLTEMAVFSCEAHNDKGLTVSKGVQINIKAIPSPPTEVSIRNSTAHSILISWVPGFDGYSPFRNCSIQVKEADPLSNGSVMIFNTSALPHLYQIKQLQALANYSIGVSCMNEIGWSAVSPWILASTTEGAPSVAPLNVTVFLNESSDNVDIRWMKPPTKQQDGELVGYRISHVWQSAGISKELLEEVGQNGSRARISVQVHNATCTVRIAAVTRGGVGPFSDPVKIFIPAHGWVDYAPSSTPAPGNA

B1: MTK-211 (antibody, human IgG1, V domains shown)
VH: QVQLQQSGAELMKPGASVKLSCKATGYTFTGYWIEWVKQRPGHGLEWIGEILPGSGGSNYNEKFKGKATFTADTSSNTAYIQLSSLTTEDSAIYCCARGEPSYFSDAGFAYWGQGTLVTVSA
VL: QIVLTQSPAVMSASPGEKVTMTCSASSSITYMHWYQQKPGTSPKRWIYDTSKLASGVPARFSGSGSGTSYFLTISSMEAEDVATYYCHQRSTYPYTFGGGTKLEIM
B2: MTK-220 (antibody, V domains shown)
VH: EVQLVESGGGLVKPGGSLKLSCAASGFTFSDYGMHWVRQAPEKGLEWVAFISGGSGTIYYEDTVKGRFTISRDNAKNTLFLQMTSLRSEDTAMYYCTRGGNYFDYWGQGTTLTVSS
VL: NIMLTQSPSSLAVSAGEKVTMTCKSSQSVLYSSNQKNYLAWYQQKPGQSPKLLIYWASTRESGVPDRFTGSGSGTDFTLTISNVQAEDLAVYYCHQYFSSWTFGGGTKLEIK
B3: MTK-223 (antibody, human IgG1, V domains shown)
VH: DVQLQESGPGLVKPSQSLSLTCSVTGYSITSGYYWNWIRQFPGNKLEWMGYISYDGTNNYNPSLKNRISITRDTSENQFFLKLNSVTTEDTATYFCVRGAGYWGQGTTLTVSS
VL: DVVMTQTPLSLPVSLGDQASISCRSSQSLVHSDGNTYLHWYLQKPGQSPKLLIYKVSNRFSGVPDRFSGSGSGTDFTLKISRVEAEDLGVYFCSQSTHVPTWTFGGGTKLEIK
B4: MTK-219 (antibody, human IgG1, V domains shown)
VH: QVQLQQSGADLMKPGASVKLSCKATGNTFTGYWIEWVKQRPGHGLEWIGEILTGSGSTNYNERFKGKATFTADTSSNTAYMQLSSLTTEDSAIYYCAGSYFTNSWFPYWGQGSLVTVSA
VL: DIVLTQSPASLAVSLGQRATISCRASESVDSYGNSFMHWYQQKPGQPPKLLIYRAYTLESGIPARFSGSGSRTDFTLTINPVEADDVATYYCQQSNEDPRTFGGGTKLEIK
B5: MTK-222 (antibody, human IgG1, V domains shown)
VH: B4 VH with N27Y, T58S, R63K, T74S, Y80F, F101Y, T102S
VL: B4 VL with A9V, N34S, Y56S, T57S, A84T
B6: MTK-228 (antibody, human IgG1, V domains shown)
VH: QDQLQQSGPELVKPGASVKISCKASGYSFTSYYIHWVKQRPGQGLEWVGWIFPGNGNTKYNERFKGKATLTADTSSSTAYMQLSSLTSEDSAVYYCARLGLIYALDYWGQGTSVTVSS
VL: DAVMTQTPLSLPVSLGDQASISCRSSQSLENSNGNTYLHWYLQKPGQSPQLLIYRVSNRFSGVLDRFSGSGSGTDFTLKISRVEAEDLGVYFCLQVTHVPFTFGSGTKLEIK
B7: MTK-226 (antibody, human IgG1, V domains shown)
VH: B6 VH with D2V, V48I, R63N, K65R
VL: B6 VL with N31S, K79Q
B8: MTK-218 (antibody, human IgG1, V domains shown)
VH: B6 VH with D2V, A16T, E46D, V48I, G56R, K59Q, R63K
VL: B6 VL with N35H, L64Q
B9: MTK-213 (antibody, human IgG1, V domains shown)
VH: QVQLQQPGAELVKPGASVKMSCKASGYTFTSYWITWVKQRPGQGHEWIGEIYPGIGSTNYNEKFKSKATLTVDTSSRTAYMQLSSLTSEDSAVYFCARGAYTKYYFDYWGQGTTLTVSS
VL: DIVMTQSHKFMSTSVGDRVSITCKASQDVGDAVAWYQQKPGQTPKLLIYWASTRHTGVPDRFTGSGSGTDFTLTISNVQSEDLADYFCQQYSSYLMYTFGGGTKLEIK
B10: MTK-227 (antibody, human IgG1, V domains shown)
VH: EVKLVESGGGLVQPGGSLSLSCAASGFTFTDNYMTWVRQPPGKALEWLGFSRNKANGYTTEYSASVKGRFTISRDSSQSILYLQMNALRAEDSGTYYCARFPPHYYAGGYFDVWGTGTTVTVSS
VL: DIQMTQSPASLSASVGETVTITCRASENIYSYLAWYQQKQGKSPQLLVYNAKTLAEGVPSRFSGSGSGTQFSLKINSLQPADFGSYYCQHYYRTPPTFGGGTKLEIK
B11: MTK-229 (antibody, human IgG1, V domains shown)
VH: QVQLQQSGPELVKPGASVKISCKASGYEFSRSWMNWVKQRPGKGLEWIGRIYPGDGDTNYKGKLKGQATLTADKSSSTAYMQLSSLTFEDSAVYFCARGGGYYYDSRYEGFVYWGQGTVVTVSA
VL: QIVLTQSPAIMSASPGEEVTMTCSASSSVSYMHWYQQKSGTSPKRWIYDTSKLASGVSGRFSGSGSGTSYSLTISSMEAEDAATYYCQQWSSNPPITFGAGTKLELK
B12: MTK-215 (antibody, human IgG1, V domains shown)
VH: EVQLVESGGGLVKPGGSLKLSCAASGFIFSDYGMHWVRQAPEKGLEWVAYISSGSSTIYYGDTVKGRFTISRDNAKNTLFLQMTSLRSEDTAMYYCAKGGRYGAMDYWGHGTSVTVSS
VL: DIVLTQSPATLSVTPGDSVSLSCRASQSISNNLHWYQQKSHESPRLLIKNPSQSISGIPSRFGARGSGTDFTLIINSVETEDLGVYFCQQSNSWPFTFGSGTKLEIK

Molecular target: T1, endogenous murine MerTK on bone …
Assay: FACS, mouse BMDM, WT minus MerTK KO
Method: (§1) To determine whether recombinant anti-human MerTK antibodies of the present disclosure bind to human MerTK endogenously expressed on SK-MEL-5 cells and CHO cells overexpressing mouse MerTK (CHO-muMerTK OE cells), as compared to A375 and parental CHO cells as negative controls, the following experiments were performed. SK-MEL-5 cells, A375 cells, CHO-muMerTK OE cells, and CHO parental cells were plated at 100,000 cells/well. Anti-MerTK antibodies were added to the cells at 10 μg/ml. After 60 minutes on ice, cells were washed and then stained with PE-conjugated goat anti-human IgG antibody (Southern Biotech Cat #2040-09, Birmingham, AL) in the presence of Fc block solution on ice for 30 minutes, and then washed twice with cold FACS buffer (2% FBS in PBS). Mouse anti-human MerTK-PE conjugated (Biolegend, Clone 590H11G1E3) or anti-mouse MerTK-PE conjugated (ThermoFisher, Clone DS5MMER) antibodies were used as positive controls. Stained cells were acquired on a BD FACS Canto II cytometer and the mean fluorescence intensity (MFI) was calculated with FlowJo.
To confirm anti-MerTK antibody binding to endogenous murine MerTK, bone marrow-derived macrophages (BMDM) were isolated from MerTK wild type (WT) and knockout (KO) mice (The Jackson Laboratory, Cat #011122) using standard protocols. Briefly, cells isolated from the bone marrow were plated in the presence of 50 ng/ml M-CSF (R&D Systems, Cat #416-ML) for seven days to allow for differentiation into macrophages. Cell staining, FACs, and MFI were performed and calculated as described above.

| Binder | MFI [MFI] |
| --- | --- |
| B1 | 4490 |
| B2 | 757 |
| B3 | 316 |
| B4 | 6180 |
| B5 | 3680 |
| B6 | 7370 |
| B7 | 10400 |
| B8 | 11800 |
| B9 | 8450 |
| B10 | 5020 |
| B11 | 2870 |
| B12 | 466 |

Molecular target: T2, mouse MerTK overexpressed on CHO cells
Assay: FACS, CHO-muMerTK OE cells, 10 ug/ml
Method: as §1

| Binder | MFI [MFI] |
| --- | --- |
| B1 | 5160 |
| B2 | 5800 |
| B3 | 234 |
| B4 | 11400 |
| B5 | 4760 |
| B6 | 17400 |
| B7 | 11500 |
| B8 | 13200 |
| B9 | 12800 |
| B10 | 14200 |
| B11 | 2000 |

Molecular target: T3, Recombinant human MerTK-human Fc …
Assay: blocking ELISA, Gas6-His on MerTK-Fc, Ab 66.6 nM, isotype=100%
Method: Briefly, rabbit anti-human IgG antibody (Jackson ImmunoResearch, Cat #309-005-008) was coated at 2 μg/ml onto high-protein binding plates at 4° C. overnight. After washing with 0.05% Tween20 in PBS three times, 5% BSA in PBS was added for 1 hour. Recombinant human MerTK-human Fe Chimera protein (R&D systems, Cat #391-MR-100) was added at 2 μg/ml for 1 hour and plates were washed before the addition of 40 μl of anti-MerTK hybridoma supernatants and 40 μl of His tag-conjugated recombinant Gas6 (R&D systems, Cat #885-GSB-050) at 3 μg/ml or His tag-conjugated recombinant ProS (R&D systems, Cat #9489-PS-100) at 20 μg/ml. After a further incubation for 1 hour, plates were washed and incubated for 1 hour with HRP-conjugated anti-6×His tagged antibody (Abcam, Cambridge, MA, Cat #ab1187). Plates were then washed and an HRP substrate, TMB, was added to develop the plates. The reaction was stopped by adding 50 μl 2N H₂SO₄ and the OD was measured using a spectrophotometer (BioTek).
Anti-MerTK antibodies were titrated to a final concentration from 66.6 nM to 4 pM and tested against anti-human MerTK antibody M6 (disclosed in WO2016/106221) or isotype control antibody.

| Binder | Percent Gas6 ligand binding [%] |
| --- | --- |
| B1 | 115 |
| B2 | 97 |
| B3 | 107 |
| B4 | 106 |
| B5 | 105 |
| B6 | 110 |
| B7 | 109 |
| B8 | 112 |
| B9 | 102 |
| B10 | 99.9 |
| B11 | 98.9 |
| B12 | 110 |
